pKd: −log10 of the molar value. Like-named read-outs stand apart in the source and are kept apart here.
Experiments:
[1] = molecular target: ΔLSBD641 (394-641), SBD641 of human Hsp70 without the first ten residues of the interdomain linker (human) (UniProt P0DMV8); assay: SEC; analytical SEC, Superdex 75 10/300 GL, 4 °C, 50 mM Tris pH 7.4, 150 mM KCl, 5 mM MgCl2; 6 µM protein
[2] = molecular target: ΔLSBD641 (394-641), SBD641 of human Hsp70 without the first ten residues of the interdomain linker (human) (UniProt P0DMV8); assay: SEC; analytical SEC, Superdex 75 10/300 GL, 4 °C, 50 mM Tris pH 7.4, 150 mM KCl, 5 mM MgCl2; 70 µM protein
[3] = molecular target: ΔLSBD641 (394-641), SBD641 of human Hsp70 without the first ten residues of the interdomain linker (human) (UniProt P0DMV8); assay: SEC; fraction of oligomeric species set beside DLS (Figure S3C), without NR peptide; 20 µM protein named for the panel
[4] = molecular target: ΔLSBD641 (394-641), SBD641 of human Hsp70 without the first ten residues of the interdomain linker (human) (UniProt P0DMV8); assay: native MS; nESI-MS, 150 mM ammonium acetate pH 7.4, protein 6 µM (6-15 µM); abundances from the most abundant charge states
[5] = molecular target: dansyl-NR peptide (NRLLLTG, N-terminally labelled with dansyl); assay: other fluorescence titration; chaperone titrated into 2 µM dansyl-NR peptide, 1 h at 25 °C, 50 mM Tris pH 7.4, 150 mM KCl, 5 mM MgCl2; single-site fit, apparent Kd
[6] = molecular target: SBD641 (384-641), full-length substrate-binding domain of human Hsp70 with the interdomain linker (human) (UniProt P0DMV8); assay: SEC; analytical SEC, Superdex 75 10/300 GL, 4 °C, 50 mM Tris pH 7.4, 150 mM KCl, 5 mM MgCl2; 6 µM protein
[7] = molecular target: SBD641 (384-641), full-length substrate-binding domain of human Hsp70 with the interdomain linker (human) (UniProt P0DMV8); assay: SEC; analytical SEC, Superdex 75 10/300 GL, 4 °C, 50 mM Tris pH 7.4, 150 mM KCl, 5 mM MgCl2; 70 µM protein
[8] = molecular target: SBD641 (384-641), full-length substrate-binding domain of human Hsp70 with the interdomain linker (human) (UniProt P0DMV8); assay: SEC; fraction of oligomeric species set beside DLS (Figure S3C), without NR peptide; 20 µM protein named for the panel
[9] = molecular target: SBD641 (384-641), full-length substrate-binding domain of human Hsp70 with the interdomain linker (human) (UniProt P0DMV8); assay: native MS + SEC; oligomerization constant estimated from the populations of Table 1; equilibrium of monomer, dimer and trimer
[10] = molecular target: SBD641 (384-641), full-length substrate-binding domain of human Hsp70 with the interdomain linker (human) (UniProt P0DMV8); assay: SEC; fraction of oligomeric species set beside DLS (Figure S3C), with 14-times excess of NR peptide; 20 µM SBD641 named for the panel
[11] = molecular target: SBD641 (384-641), full-length substrate-binding domain of human Hsp70 with the interdomain linker (human) (UniProt P0DMV8); assay: native MS; nESI-MS, 150 mM ammonium acetate pH 7.4, protein 6 µM (6-15 µM); abundances from the most abundant charge states
[12] = molecular target: SBD641 (384-641), full-length substrate-binding domain of human Hsp70 with the interdomain linker (human) (UniProt P0DMV8); assay: as above; remark: listed apart in the source
[13] = molecular target: SBD641 (384-641), full-length substrate-binding domain of human Hsp70 with the interdomain linker (human) (UniProt P0DMV8); assay: SEC; analytical SEC after 1 h at room temperature with a 14-fold excess of NR peptide; protein concentration of this panel not stated
[14] = molecular target: SBD641 (384-641), full-length substrate-binding domain of human Hsp70 with the interdomain linker (human) (UniProt P0DMV8); assay: SEC + other: dynamic light scattering; fraction of oligomers (SEC) and apparent hydrodynamic diameter (DLS) of SBD641 against protein concentration; extrapolation to 0.5 oligomer fraction
[15] = system: P0DMV8; assay: SEC; analytical SEC, Superdex 75 10/300 GL, 4 °C, 50 mM Tris pH 7.4, 150 mM KCl, 5 mM MgCl2; 6 µM protein
[16] = system: P0DMV8; assay: SEC; analytical SEC, Superdex 75 10/300 GL, 4 °C, 50 mM Tris pH 7.4, 150 mM KCl, 5 mM MgCl2; 70 µM protein
[17] = system: P0DMV8; assay: native MS; nESI-MS, 150 mM ammonium acetate pH 7.4, protein 6 µM (6-15 µM); abundances from the most abundant charge states
[18] = molecular target: SBD556 (384-556) of human Hsp70 with the L542Y mutation (human) (UniProt P0DMV8); assay: SEC; analytical SEC, Superdex 75 10/300 GL, 4 °C, 50 mM Tris pH 7.4, 150 mM KCl, 5 mM MgCl2; 6 µM protein
[19] = molecular target: SBD556 (384-556) of human Hsp70 with the L542Y mutation (human) (UniProt P0DMV8); assay: SEC; analytical SEC, Superdex 75 10/300 GL, 4 °C, 50 mM Tris pH 7.4, 150 mM KCl, 5 mM MgCl2; 70 µM protein
[20] = molecular target: SBD556 (384-556) of human Hsp70 with the L542Y mutation (human) (UniProt P0DMV8); assay: native MS; nESI-MS, 150 mM ammonium acetate pH 7.4, protein 6 µM (6-15 µM); abundances from the most abundant charge states
[21] = system: P0DMV8; assay: SEC; analytical SEC of SBD641 refolded after thermal denaturation; protein concentration of this panel not stated
[22] = system: P0DMV8; assay: SEC; analytical SEC after 1 h at room temperature with a 14-fold excess of NR peptide; protein concentration of this panel not stated
[23] = molecular target: FL-Hsp70 2LD, full-length human Hsp70 with Leu395 and Leu397 substituted by aspartic residues (human) (UniProt P0DMV8); assay: SEC; analytical SEC, Superdex 75 10/300 GL, 4 °C; 220 µM protein
[24] = molecular target: full-length human Hsp70 (Hsp70 1A) (human) (UniProt P0DMV8); assay: as above
[25] = molecular target: full-length human Hsp70 (Hsp70 1A) (human) (UniProt P0DMV8); assay: SEC; analytical SEC, Superdex 75 10/300 GL, 4 °C, 50 mM Tris pH 7.4, 150 mM KCl, 5 mM MgCl2; 6 µM protein
[26] = molecular target: full-length human Hsp70 (Hsp70 1A) (human) (UniProt P0DMV8); assay: SEC; analytical SEC, Superdex 75 10/300 GL, 4 °C, 50 mM Tris pH 7.4, 150 mM KCl, 5 mM MgCl2; 70 µM protein
[27] = molecular target: full-length human Hsp70 (Hsp70 1A) (human) (UniProt P0DMV8); assay: native MS; nESI-MS, 150 mM ammonium acetate pH 7.4, protein 6 µM (6-15 µM); abundances from the most abundant charge states

FL-Hsp70 2LD, full-length human Hsp70 with Leu395 and Leu397 substituted by aspartic residues, sequence (P0DMV8 whole entry): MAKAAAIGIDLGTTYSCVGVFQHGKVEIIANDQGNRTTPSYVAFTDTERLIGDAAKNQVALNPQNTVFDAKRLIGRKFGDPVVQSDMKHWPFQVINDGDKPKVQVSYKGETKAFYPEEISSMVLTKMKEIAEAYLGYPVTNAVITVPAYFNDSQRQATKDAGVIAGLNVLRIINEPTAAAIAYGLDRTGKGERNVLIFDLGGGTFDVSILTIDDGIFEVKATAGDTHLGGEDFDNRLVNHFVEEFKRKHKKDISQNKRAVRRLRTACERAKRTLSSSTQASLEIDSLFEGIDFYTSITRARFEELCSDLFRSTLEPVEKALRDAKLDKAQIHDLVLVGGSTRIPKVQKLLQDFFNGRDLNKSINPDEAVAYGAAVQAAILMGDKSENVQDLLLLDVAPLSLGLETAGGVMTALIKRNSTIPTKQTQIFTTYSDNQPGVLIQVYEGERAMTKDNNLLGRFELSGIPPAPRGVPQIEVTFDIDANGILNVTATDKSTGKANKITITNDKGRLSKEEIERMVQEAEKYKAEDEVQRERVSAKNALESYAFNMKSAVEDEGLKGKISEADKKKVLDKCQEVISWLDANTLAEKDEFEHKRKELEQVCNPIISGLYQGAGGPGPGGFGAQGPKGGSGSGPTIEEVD

“ΔLSBD641 (394-641), SBD641 of human Hsp70 without the first ten residues of the interdomain linker (from UniProt P0DMV8 394-641) (domain or fragment)” was tested, and the % dimer [1] was 9%, the % total oligomers [1] was 9% and the % dimer [2] was 14%. The % total oligomers [2] was 14%, the fraction of oligomeric species [3] was 0.1 and the % dimer [4] was 8%. It also gave a % total oligomers [4] of 8%, a % trimer [4] of -0% and a pKd [5] of 5.10.
“SBD641 (384-641), full-length substrate-binding domain of human Hsp70 with the interdomain linker (from UniProt P0DMV8 384-641) (domain or fragment)” gave a % dimer [6] of 44%, a % total oligomers [6] of 63% and a % dimer [7] of 55%. The % higher-order oligomers [7] was 22%, the % total oligomers [7] was 77% and the fraction of oligomeric species [8] was 0.7. It also gave a pKd [9] of 5.00 to 5.30, a fraction of oligomeric species [10] of 0.5 and a % dimer [11] of 40%. The % total oligomers [11] was 54%, the % trimer [11] was 10% and the % tetramer [12] was 2%. The % trimer [12] was 12%, the % dimer [13] was 24% and the % higher-order oligomers [13] was 18%. For the same substance, the pKd [5] was 4.96 and the pKd [14] was 5.00 to 6.00.
Work on “ΔLSBD641 (394-641), SBD641 of human Hsp70 without the first ten residues of the interdomain linker” yielded a % monomer [15] of 91%, a % monomer [16] of 86% and a % monomer [17] of 92%.
“SBD556 (384-556) of human Hsp70 with the L542Y mutation (from UniProt P0DMV8 384-556) (domain or fragment)” showed a % dimer [18] of 3%, a % total oligomers [18] of 3% and a % dimer [19] of 7%. For the same substance, the % total oligomers [19] was 7%, the % dimer [20] was 16% and the % total oligomers [20] was 18%. For the same substance, the % trimer [20] was 2% and the pKd [5] was 4.28.
In the case of “SBD641 (384-641), full-length substrate-binding domain of human Hsp70 with the interdomain linker”, the % monomer [15] was 37%, the % monomer [16] was 23% and the “% monomer” value [21] was “a dramatic increase in the monomeric fraction of the refolded protein compared to the native protein (from 37% to 71%)”. For the same substance, the % monomer [17] was 46% and the “% monomer” value [22] was “the monomeric fraction increases from 37% to 58% in the presence of peptide”.
With “FL-Hsp70 2LD, full-length human Hsp70 with Leu395 and Leu397 substituted by aspartic residues (from UniProt P0DMV8 1-641) (natural protein)” the % oligomeric species [23] was < 9%.
“full-length human Hsp70 (Hsp70 1A) (from UniProt P0DMV8 1-641) (natural protein)” gave a % oligomeric species [24] of 35%, a % dimer [25] of 1% and a % total oligomers [25] of 1%. For the same substance, the % dimer [26] was 7%, the % oligomeric species [26] was 10% and the % total oligomers [26] was 7%. It also gave a % dimer [27] of 2%, a % total oligomers [27] of 2% and a % trimer [27] of -0%. For the same substance, the pKd [5] was 5.05.
With full-length human Hsp70 (Hsp70 1A) the % monomer [15] was 99%, the % monomer [16] was 93% and the % monomer [17] was 98%.
With “SBD556 (384-556) of human Hsp70 with the L542Y mutation” the % monomer [15] was 97%, the % monomer [16] was 93% and the % monomer [17] was 82%.

— publication PMC3696110, “Hsp70 Oligomerization Is Mediated by an Interaction between the Interdomain Linker and the Substrate-Binding Domain” (PLoS ONE, 2013)
